Results reported in patent US20190359687A1 (Bayer, published 2019).

Columns and labels:
[1] = biological target: T1, human glycophorin A on human red blood cells or red blood cell membranes (human, UniProt P02724 20-150); test: SPR (Biacore), Fab on human RBC membranes;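 further: human RBC membranes captured on an L1 sensor chip, Fab fragments passed over as analyte, binding kinetics read by surface plasmon resonance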
T1 construct: whole, on cells; also called hRBC; human RBC membranes
T1 sequence (looked up): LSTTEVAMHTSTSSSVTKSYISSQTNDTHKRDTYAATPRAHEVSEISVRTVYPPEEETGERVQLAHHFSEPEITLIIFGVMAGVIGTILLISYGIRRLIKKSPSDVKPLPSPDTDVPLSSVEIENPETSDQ
Protocol: (§1) Kinetic analysis of the antibody binding to human red blood cell membranes was also performed using surface plasmon resonance (SPR) using a Biacore instrument. In this assay membranes prepared from human red blood cells were attached to a L1 sensor matrix and antibodies were flowed over the RBC membranes.
(§2) The binding kinetics of the affinity matured Fab antibodies was also measured.

[2] = biological target: T1, human glycophorin A on human red blood …; test: SPR (Biacore), Fab on human RBC membranes; T½ = 0.69/kd
Protocol: as §1, §2

[3] = biological target: T2, Cynomolgus monkey glycophorin A on Cynomolgus monkey red blood cells or red blood cell membranes (Cynomolgus monkey); test: Fab 7 ug/ml on intact cyno RBC, unbound Fab by ELISA; pre-dilution
T2 construct: whole, on cells; also called Cyno RBC; Cynomolgus monkey RBC membranes

[4] = biological target: T1, human glycophorin A on human red blood …; test: Fab 7 ug/ml on intact human RBC, unbound Fab by ELISA; pre-dilution
[5] = biological target: T1, human glycophorin A on human red blood …; test: SPR (Biacore), Fab on human RBC membranes; * not accurate, instrument limit
Protocol: as §1, §2

[6] = biological target: T2, Cynomolgus monkey glycophorin A on …; test: Fab on intact cyno RBC, unbound Fab by ELISA; 0 min after 200-fold dilution
Protocol: (§3) The binding of affinity matured Fab antibodies to intact Cynomolgus monkey RBC was measured. Cynomolgus monkey RBC were isolated from fresh anti-coagulated blood by centrifugation through a ficol gradient and washing in PBS buffer. RBC diluted to 1/10th of normal hematocrit were incubated with the Fab at a final concentration of 7 ug/ml for 1 hour at room temperature on a rotating shaker after which a sample was taken and the RBC were pelleted by centrifugation and the supernatant was collected. The remaining RBC suspension was diluted 200-fold in PBS buffer and incubated for a total of 2 hours at room temperature on a rotating shaker and samples were removed at 0, 5 min, 20 min, 1 h and 2 h and the RBC pelleted and the supernatant collected. […] The amount of Fab in the supernatants was then measured using an ELISA assay and the results used to calculate the percentage of the input Fab that was bound to the RBC.

[7] = biological target: T2, Cynomolgus monkey glycophorin A on …; test: Fab on intact cyno RBC, unbound Fab by ELISA; 5 min after 200-fold dilution
Protocol: as §3

[8] = biological target: T1, human glycophorin A on human red blood …; test: Fab on intact human RBC, unbound Fab by ELISA; 0 min after 200-fold dilution
[9] = biological target: T1, human glycophorin A on human red blood …; test: Fab on intact human RBC, unbound Fab by ELISA; 5 min after 200-fold dilution
[10] = biological target: T2, Cynomolgus monkey glycophorin A on …; test: Fab on intact cyno RBC, unbound Fab by ELISA; 20 min after 200-fold dilution
[11] = biological target: T2, Cynomolgus monkey glycophorin A on …; test: Fab on intact cyno RBC, unbound Fab by ELISA; 60 min after 200-fold dilution
Protocol: as §3

[12] = biological target: T1, human glycophorin A on human red blood …; test: Fab on intact human RBC, unbound Fab by ELISA; 20 min after 200-fold dilution
[13] = biological target: T1, human glycophorin A on human red blood …; test: Fab on intact human RBC, unbound Fab by ELISA; 60 min after 200-fold dilution
Protocol: The binding of affinity matured Fab antibodies to intact human RBC was also measured. Human RBC were isolated from fresh anti-coagulated normal human blood by centrifugation through a ficol gradient and washing in PBS buffer. RBC diluted to 1/10th of normal hematocrit were incubated with purified Fab antibodies at a final concentration of 7 ug/ml for 1 hour at room temperature on a rotating shaker after which a sample was taken and the RBC were pelleted by centrifugation and the supernatant was collected. The remaining RBC suspension was diluted 200-fold in PBS buffer and incubated for a total of 2 hours at room temperature on a rotating shaker and samples were removed at 0, 5 min, 20 min, 1 h and 2 h and the RBC pelleted and the supernatant collected. The amount of Fab in the supernatants was then measured using an ELISA assay and the results used to calculate the percentage of the input Fab that was bound to the RBC. […] The percentage that remains bound after 200-fold dilution of the RBC suspension is an indication of the overall strength of the binding to human RBC.

[14] = biological target: T2, Cynomolgus monkey glycophorin A on …; test: Fab on intact cyno RBC, unbound Fab by ELISA; 120 min after 200-fold dilution
[15] = biological target: T1, human glycophorin A on human red blood …; test: Fab on intact human RBC, unbound Fab by ELISA; 120 min after 200-fold dilution

B1: TPP-7778, affinity matured 6C12 Fab (Fab, V domains shown)
VH: EVQLVQSGAEVKKPGASVKVSCKASGYTFTTYAIHWVRQAPGQGLEWMGYINPSSGYTRYNPKFKHRVTMTRDKSTSTAYMELRSLRSDDTAVYYCQTGTRDYWGQGTTVTVSS
VL: DIQLTQSPSFLSASVGDRVTITCRASSSVRYIYWFQQKPGKAPKLLIYATSTLQSGVPSRFSGSGSGTEYTLTISSLQPEDFATYYCHQRNSFPYTFGQGTKLEIK
notes: Tested as Fab
B1 was tested, and the Kd [1] was 0.011 nM, the koff [1] was 0.0011 s⁻¹ and the “Estimated T½” value [2] was 10 min. The “percentage of input antibody bound” value [3] was 81%, the “percentage of input antibody bound” value [4] was 95% and the kon [5] was 1e+08 M⁻¹ s⁻¹. The “percentage of input antibody bound” value [6] was 56%, the “percentage of input antibody bound” value [7] was 54% and the “percentage of input antibody bound” value [8] was 84%. For the same binder, the “percentage of input antibody bound” value [9] was 76%, the “percentage of input antibody bound” value [10] was 48% and the “percentage of input antibody bound” value [11] was 36%. For the same binder, the “percentage of input antibody bound” value [12] was 66%, the “percentage of input antibody bound” value [13] was 66% and the “percentage of input antibody bound” value [14] was 27%. The “percentage of input antibody bound” value [15] was 64%.

B2: TPP-7789, affinity matured 6C12 Fab (Fab, V domains shown)
VH: EVQLVQSGAEVKKPGASVKVSCKASGYTFTTYTIHWVRQAPGQGLEWMGYINPSSGYTRYNPKFKHRVTMTRDKSTSTAYMELRSLRSDDTAVYYCWTGTRDYWGQGTTVTVSS
VL: DIQLTQSPSFLSASVGDRVTITCRASSSVRYIYWFQQKPGKAPKLLIYATSTLQSGVPSRFSGSGSGTEYTLTISSLQPEDFATYYCHQRNSFPYTFGQGTKLEIK
notes: Tested as Fab
With B2 the Kd [1] was 0.00799 nM, the koff [1] was 0.000128 s⁻¹ and the “Estimated T½” value [2] was 90 min. For the same binder, the kon [5] was 1.61e+07 M⁻¹ s⁻¹.

B3: TPP-7793, affinity matured 6C12 Fab (Fab, V domains shown)
VH: EVQLVQSGAEVKKPGASVKVSCKASGYTFTRYTIHWVRQAPGQGLEWMGYINPSSGYTRYNPKFKGRVTMTRDKSTSTAYMELRSLRSDDTAVYYCWTGTRDYWGQGTTVTVSS
VL: DIQLTQSPSFLSASVGDRVTITCRASSSVSYIYWFQQKPGKAPKLLIYATSTLQSGVPSRFSGSGSGTEYTLTISSLQPEDFATYYCHQRNSFPYTFGQGTKLEIK
notes: Tested as Fab
For B3, the Kd [1] was 0.0246 nM, the koff [1] was 0.000504 s⁻¹ and the “Estimated T½” value [2] was 23 min. The “percentage of input antibody bound” value [3] was 72%, the “percentage of input antibody bound” value [4] was 98% and the kon [5] was 2.05e+07 M⁻¹ s⁻¹. For the same binder, the “percentage of input antibody bound” value [6] was 58%, the “percentage of input antibody bound” value [7] was 58% and the “percentage of input antibody bound” value [8] was 96%. For the same binder, the “percentage of input antibody bound” value [9] was 92%, the “percentage of input antibody bound” value [10] was 51% and the “percentage of input antibody bound” value [11] was 51%. For the same binder, the “percentage of input antibody bound” value [12] was 86%, the “percentage of input antibody bound” value [13] was 85% and the “percentage of input antibody bound” value [14] was 46%. The “percentage of input antibody bound” value [15] was 86%.

B4: TPP-7795, affinity matured 6C12 Fab (Fab, V domains shown)
VH: EVQLVQSGAEVKKPGASVKVSCKASGYTFTTYTIHWVRQAPGQGLEWMGYINPKSGWTRYNPKFKGRVTMTRDKSTSTAYMELRSLRSDDTAVYYCQTGTRDYWGQGTTVTVSS
VL: DIQLTQSPSFLSASVGDRVTITCRASSSVSYIYWFQQKPGKAPKLLIYATSFLQSGVPSRFSGSGSGTEYTLTISSLQPEDFATYYCHQRNSFPYTFGQGTKLEIK
notes: Tested as Fab
For B4, the “percentage of input antibody bound” value [3] was 73%, the “percentage of input antibody bound” value [4] was 95% and the “percentage of input antibody bound” value [7] was 51%. The “percentage of input antibody bound” value [8] was 86%, the “percentage of input antibody bound” value [9] was 74% and the “percentage of input antibody bound” value [10] was 39%. For the same binder, the “percentage of input antibody bound” value [11] was 29%, the “percentage of input antibody bound” value [12] was 63% and the “percentage of input antibody bound” value [13] was 63%. The “percentage of input antibody bound” value [14] was 22% and the “percentage of input antibody bound” value [15] was 63%.

B5: TPP-7782, affinity matured 6C12 Fab (Fab, V domains shown)
VH: EVQLVQSGAEVKKPGASVKVSCKASGYTFTTYTIHWVRQAPGQGLEWMGYINPSSGYTRYNPKFKGRVTMTRDKSTSTAYMELRSLRSDDTAVYYCQTGTRDYWGQGTTVTVSS
VL: DIQLTQSPSFLSASVGDRVTITCRASSSVRYIYWFQQKPGKAPKLLIYATSFRQSGVPSRFSGSGSGTEYTLTISSLQPEDFATYYCHQRNSFPYTFGQGTKLEIK
notes: Tested as Fab
B5 was tested, and the Kd [1] was 0.0295 nM, the koff [1] was 0.000413 s⁻¹ and the “Estimated T½” value [2] was 28 min. The “percentage of input antibody bound” value [3] was 94%, the “percentage of input antibody bound” value [4] was 99% and the kon [5] was 1.4e+07 M⁻¹ s⁻¹. For the same binder, the “percentage of input antibody bound” value [6] was 88%, the “percentage of input antibody bound” value [7] was 68% and the “percentage of input antibody bound” value [8] was 95%. The “percentage of input antibody bound” value [9] was 83%, the “percentage of input antibody bound” value [10] was 59% and the “percentage of input antibody bound” value [11] was 57%. For the same binder, the “percentage of input antibody bound” value [12] was 76%, the “percentage of input antibody bound” value [13] was 79% and the “percentage of input antibody bound” value [14] was 52%. The “percentage of input antibody bound” value [15] was 77%.

B6: TPP-7781, affinity matured 6C12 Fab (Fab, V domains shown)
VH: EVQLVQSGAEVKKPGASVKVSCKASGYTFTTYTIHWVRQAPGQGLEWMGYINPKSGWTRYNPKFKGRVTMTRDKSTSTAYMELRSLRSDDTAVYYCQTGTRDYWGQGTTVTVSS
VL: DIQLTQSPSFLSASVGDRVTITCRASSSVRYIYWFQQKPGKAPKLLIYATSTLQSGVPSRFSGSGSGTEYTLTISSLQPEDFATYYCHQRNSFPYTFGQGTKLEIK
notes: Tested as Fab
With B6 the Kd [1] was 0.0289 nM, the koff [1] was 0.000547 s⁻¹ and the “Estimated T½” value [2] was 21 min. For the same binder, the “percentage of input antibody bound” value [3] was 86%, the “percentage of input antibody bound” value [4] was 97% and the kon [5] was 1.89e+07 M⁻¹ s⁻¹. For the same binder, the “percentage of input antibody bound” value [6] was 40%, the “percentage of input antibody bound” value [7] was 34% and the “percentage of input antibody bound” value [8] was 93%. For the same binder, the “percentage of input antibody bound” value [9] was 69%, the “percentage of input antibody bound” value [10] was 32% and the “percentage of input antibody bound” value [11] was 24%. For the same binder, the “percentage of input antibody bound” value [12] was 61%, the “percentage of input antibody bound” value [13] was 64% and the “percentage of input antibody bound” value [14] was 19%. For the same binder, the “percentage of input antibody bound” value [15] was 59%.
